Measured values from patent publication US20250144222A1, “Bifunctional Compounds Targeting the Cation-Independent Mannose 6- Phosphate Receptor” (NANOMEDSYN, priority 2022, published 2025).

Experiments:
[1] = Pharmacokinetic profile in mice after single i.v. bolus; type: in vivo, C57BL/6J mice; settings: single i.v. bolus 4 mg/kg, 21 days
Protocol: Mice were weighed before injection and throughout the experiment to monitor their health. Blood samples taken at 4 and 1, 2, 3, 7, 10, 14, 17 and 21 days post-injection were collected in tubes containing heparin and centrifuged at 3,000 g for 15 min, and the plasma was stored at −20° C. until measurement. Mice were sacrificed 21 days after injection.
The therapeutic antibody was detected using an HRP-conjugated anti-human IgG antibody specific for the Fc fragment, which was then quantified by a colorimetric assay with the OPD substrate and absorbance measure at 450 nm.

b-CI-M6PR = biological target: T1, b-CI-M6PR (UniProt P08169); experiment: Competitive binding of biotinylated CI-M6PR to adsorbed pentamannose 6-phosphate; settings: competitive assay with pentamannose 6-phosphate ligand; read-out: Affinity for b-CI-M6PR (IC50) (converted)
T1 construct: fused on or other part: Chemical biotin label (biotin N-hydroxysuccinimide) for streptavidin-peroxidase detection; no fused protein
Protocol: Briefly, CI-M6PR, purified on a phosphomannane-sepharose affinity column, was biotinylated with biotin N-hydroxysuccinimide. […] The b-CI-M6PR bound to adsorbed PMP was then determined using streptavidin conjugated to the peroxidase and its substrate, o-phenylenediamine dihydrochloride (OPD), by optical density measurements. The 100% value corresponds to the concentration of b-CI-M6PR bound to PMP adsorbed in the absence of a competitor.

IC50 (b-CI-M6PR) [µM]	Compound	adverse clinical events [1]
–	infliximab [mAb1, reference compound]	No adverse clinical events
–	adalimumab [mAb2, reference compound]	No adverse clinical events
20	O=C[C@@H](O)[C@@H](O)[C@H](O)[C@H](O)COP(=O)(O)O [M6P, mannose 6-phosphate]	–
